# Results as given in patent publication US20040052794.
# Assays:
# [1] = molecular target: RB18A D9 product (aa 436-1566) (Homo sapiens) (UniProt Q15648); assay: pulldown; details: 100 mM NaCl
# [2] = tested on: luciferase; assay: pulldown; details: 100 mM NaCl; negative control
# [3] = molecular target: p53 wild-type (Homo sapiens) (UniProt P04637); assay: pulldown; details: 100 mM NaCl; positive control
# [4] = molecular target: GST-RB18A-N2 (Homo sapiens) (UniProt Q15648); details: strand annealing initial rate, 20 nM protein, 37 C
# GST-RB18A-N2 (Homo sapiens), sequence (Q15648 1249-1581): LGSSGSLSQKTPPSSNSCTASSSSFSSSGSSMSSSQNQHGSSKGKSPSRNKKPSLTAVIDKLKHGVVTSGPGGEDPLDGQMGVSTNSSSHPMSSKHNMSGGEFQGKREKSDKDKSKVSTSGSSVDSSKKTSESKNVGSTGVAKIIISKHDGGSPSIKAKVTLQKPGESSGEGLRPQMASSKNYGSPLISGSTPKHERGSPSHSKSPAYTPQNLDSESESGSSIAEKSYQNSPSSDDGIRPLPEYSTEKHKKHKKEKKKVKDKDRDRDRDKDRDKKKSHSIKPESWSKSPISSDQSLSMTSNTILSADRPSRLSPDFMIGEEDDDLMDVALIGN
# [5] = tested on: p53 wild-type His-tag (Homo sapiens); details: strand annealing initial rate, 20 nM protein, 37 C
# p53 wild-type (Homo sapiens), sequence (P04637 whole entry): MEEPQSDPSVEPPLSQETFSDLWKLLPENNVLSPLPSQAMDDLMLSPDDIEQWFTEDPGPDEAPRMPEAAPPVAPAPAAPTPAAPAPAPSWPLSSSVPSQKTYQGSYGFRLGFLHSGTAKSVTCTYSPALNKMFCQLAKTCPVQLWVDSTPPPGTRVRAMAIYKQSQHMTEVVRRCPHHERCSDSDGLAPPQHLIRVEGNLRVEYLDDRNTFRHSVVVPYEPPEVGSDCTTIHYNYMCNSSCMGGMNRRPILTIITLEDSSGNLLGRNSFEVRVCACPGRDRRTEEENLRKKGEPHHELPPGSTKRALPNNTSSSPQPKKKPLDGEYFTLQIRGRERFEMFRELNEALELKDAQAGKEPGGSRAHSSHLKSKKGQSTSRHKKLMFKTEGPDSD
# RB18A D9 product (aa 436-1566) (Homo sapiens), sequence (Q15648 other isoform, or with tags, fused parts or gaps): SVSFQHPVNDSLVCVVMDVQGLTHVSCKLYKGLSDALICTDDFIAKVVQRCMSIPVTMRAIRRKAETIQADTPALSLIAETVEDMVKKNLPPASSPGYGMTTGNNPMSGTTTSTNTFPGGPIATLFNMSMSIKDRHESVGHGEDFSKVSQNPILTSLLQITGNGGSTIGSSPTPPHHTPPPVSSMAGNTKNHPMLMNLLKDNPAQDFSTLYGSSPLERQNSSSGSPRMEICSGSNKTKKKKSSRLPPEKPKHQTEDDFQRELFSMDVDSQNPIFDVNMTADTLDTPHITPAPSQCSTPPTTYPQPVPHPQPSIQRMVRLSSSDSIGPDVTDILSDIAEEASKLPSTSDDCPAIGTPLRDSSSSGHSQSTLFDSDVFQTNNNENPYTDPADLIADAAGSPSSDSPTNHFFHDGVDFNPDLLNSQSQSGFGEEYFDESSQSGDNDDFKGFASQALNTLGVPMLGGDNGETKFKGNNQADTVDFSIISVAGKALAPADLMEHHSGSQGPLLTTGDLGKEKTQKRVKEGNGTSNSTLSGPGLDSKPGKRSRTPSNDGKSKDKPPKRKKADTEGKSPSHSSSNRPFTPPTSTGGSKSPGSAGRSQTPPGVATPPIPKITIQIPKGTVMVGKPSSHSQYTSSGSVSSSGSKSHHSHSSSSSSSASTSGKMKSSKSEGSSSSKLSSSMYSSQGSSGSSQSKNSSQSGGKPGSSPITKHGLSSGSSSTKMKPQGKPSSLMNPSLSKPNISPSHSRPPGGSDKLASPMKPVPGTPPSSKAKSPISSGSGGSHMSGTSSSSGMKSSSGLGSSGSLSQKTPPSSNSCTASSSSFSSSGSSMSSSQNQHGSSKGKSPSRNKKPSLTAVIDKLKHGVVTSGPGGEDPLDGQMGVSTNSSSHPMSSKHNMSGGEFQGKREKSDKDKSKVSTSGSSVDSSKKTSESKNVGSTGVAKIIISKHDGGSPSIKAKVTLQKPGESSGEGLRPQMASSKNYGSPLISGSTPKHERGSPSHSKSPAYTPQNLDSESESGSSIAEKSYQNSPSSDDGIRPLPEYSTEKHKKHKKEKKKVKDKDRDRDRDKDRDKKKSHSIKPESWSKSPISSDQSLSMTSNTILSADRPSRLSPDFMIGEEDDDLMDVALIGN
Substance,binding (% of input retained) [1],binding (% of input retained) [2],binding (% of input retained) [3],activity [4] [%/min],activity [5] [%/min]
double-stranded DNA-cellulose,20,< 0.1,20,–,–
"phiX174 HaeIII 194 bp fragment, heat denatured",–,–,–,14,5.9
